# Source: patent publication US20050244864A1, “Development and use of fluorescent probes of unbound analytes” (priority 2004, published 2005)
# Changes are numbered by the printed parent chain. In names and notes the source's numbering stands.
# B1: A73F, L72A: acrylodan-labeled rI-FABP mutein A73F, L72A (protein)
# chain: AFDGTWKVDRNENYEKFMEKMGINVVKRKLGAHDNLKLTITQEGNKFTVKESSNFRNIDVVFELGVDFAYSAFDGTELTGTWTMEGNKLVGKFKRVDNGKELIAVREISGNELIQTYTYEGVEAKRIFKKE
# B2: L1P5 A10: acrylodan-labeled rI-FABP mutein: Y14 wt, L38 wt, L72 wt, Y117 A (protein, UniProt P02693 2-132, looked up, variant Y117A)
# Fatty acid-binding protein, …: B1 chain with A72L, F73A, Y117A
# modifications: acrylodan label
# notes: acrylodan-labeled rI-FABP mutein: Y14 wt, L38 wt, L72 wt, Y117 A
# B3: L1P16 G10: acrylodan-labeled rI-FABP mutein: Y14 W, L38 wt, L72 M, Y117 A (protein, UniProt P02693 2-132, looked up, variant Y14W L72M Y117A)
# Fatty acid-binding protein, …: B1 chain with Y14W, A72M, F73A, Y117A
# modifications: acrylodan label
# notes: acrylodan-labeled rI-FABP mutein: Y14 W, L38 wt, L72 M, Y117 A
# B4: L1P8 D4: acrylodan-labeled rI-FABP mutein: Y14 M, L38 wt, L72 M, Y117 A (protein, UniProt P02693 2-132, looked up, variant Y14M L72M Y117A)
# Fatty acid-binding protein, …: B1 chain with Y14M, A72M, F73A, Y117A
# modifications: acrylodan label
# notes: acrylodan-labeled rI-FABP mutein: Y14 M, L38 wt, L72 M, Y117 A
# B5: L1P12 F12: acrylodan-labeled rI-FABP mutein: Y14 L, L38 wt, L72 G, Y117 V (protein, UniProt P02693 2-132, looked up, variant Y14L L72G Y117V)
# Fatty acid-binding protein, …: B1 chain with Y14L, A72G, F73A, Y117V
# modifications: acrylodan label
# notes: acrylodan-labeled rI-FABP mutein: Y14 L, L38 wt, L72 G, Y117 V
# B6: L1P14 A9: acrylodan-labeled rI-FABP mutein: Y14 L, L38 wt, L72 G, Y117 I (protein, UniProt P02693 2-132, looked up, variant Y14L L72G Y117I)
# Fatty acid-binding protein, …: B1 chain with Y14L, A72G, F73A, Y117I
# modifications: acrylodan label
# notes: acrylodan-labeled rI-FABP mutein: Y14 L, L38 wt, L72 G, Y117 I
# B7: L1P11 F12: acrylodan-labeled rI-FABP mutein: Y14 L, L38 I, L72 wt, Y117 wt (protein, UniProt P02693 2-132, looked up, variant Y14L L38I)
# Fatty acid-binding protein, …: B1 chain with Y14L, L38I, A72L, F73A
# modifications: acrylodan label
# B8: L1P9 G10: acrylodan-labeled rI-FABP mutein: Y14 wt, L38 I, L72 G, Y117 wt (protein, UniProt P02693 2-132, looked up, variant L38I L72G)
# Fatty acid-binding protein, …: B1 chain with L38I, A72G, F73A
# modifications: acrylodan label
# B9: L1P17 A8: acrylodan-labeled rI-FABP mutein: Y14 wt, L38 M, L72 G, Y117 F (protein, UniProt P02693 2-132, looked up, variant L38M L72G Y117F)
# Fatty acid-binding protein, …: B1 chain with L38M, A72G, F73A, Y117F
# modifications: acrylodan label
# notes: acrylodan-labeled rI-FABP mutein: Y14 wt, L38 M, L72 G, Y117 F
# B10: L1P1 F7: acrylodan-labeled rI-FABP mutein: Y14 L, L38 M, L72 wt, Y117 F (protein, UniProt P02693 2-132, looked up, variant Y14L L38M Y117F)
# Fatty acid-binding protein, …: B1 chain with Y14L, L38M, A72L, F73A, Y117F
# modifications: acrylodan label
# notes: acrylodan-labeled rI-FABP mutein: Y14 L, L38 M, L72 wt, Y117 F
# B11: A73I, L72A: acrylodan-labeled rI-FABP mutein A73I, L72A (protein)
# chain: B1 chain with F73I
# B12: L1P12 G10: acrylodan-labeled rI-FABP mutein: Y14 I, L38 wt, L72 wt, Y117 wt (protein, UniProt P02693 2-132, looked up, variant Y14I)
# Fatty acid-binding protein, …: B1 chain with Y14I, A72L, F73A
# modifications: acrylodan label
# B13: L1P7 H4: acrylodan-labeled rI-FABP mutein: Y14 I, L38 M, L72 W, Y117 wt (protein, UniProt P02693 2-132, looked up, variant Y14I L38M L72W)
# Fatty acid-binding protein, …: B1 chain with Y14I, L38M, A72W, F73A
# modifications: acrylodan label
# notes: acrylodan-labeled rI-FABP mutein: Y14 I, L38 M, L72 W, Y117 wt
# B14: L1P7 B11: acrylodan-labeled rI-FABP mutein: Y14 I, L38 I, L72 V, Y117 wt (protein, UniProt P02693 2-132, looked up, variant Y14I L38I L72V)
# Fatty acid-binding protein, …: B1 chain with Y14I, L38I, A72V, F73A
# modifications: acrylodan label
# notes: acrylodan-labeled rI-FABP mutein: Y14 I, L38 I, L72 V, Y117 wt
# B15: L1P8 H2: acrylodan-labeled rI-FABP mutein: Y14 M, L38 M, L72 W, Y117 wt (protein, UniProt P02693 2-132, looked up, variant Y14M L38M L72W)
# Fatty acid-binding protein, …: B1 chain with Y14M, L38M, A72W, F73A
# modifications: acrylodan label
# notes: acrylodan-labeled rI-FABP mutein: Y14 M, L38 M, L72 W, Y117 wt
# B16: L1P2 F7: acrylodan-labeled rI-FABP mutein: Y14 I, L38 wt, L72 G, Y117 V (protein, UniProt P02693 2-132, looked up, variant Y14I L72G Y117V)
# Fatty acid-binding protein, …: B1 chain with Y14I, A72G, F73A, Y117V
# modifications: acrylodan label
# notes: acrylodan-labeled rI-FABP mutein: Y14 I, L38 wt, L72 G, Y117 V
# B17: L1P3 D6: acrylodan-labeled rI-FABP mutein: Y14 L, L38 wt, L72 wt, Y117 wt (protein, UniProt P02693 2-132, looked up, variant Y14L)
# Fatty acid-binding protein, …: B1 chain with Y14L, A72L, F73A
# modifications: acrylodan label
# Test: Probe fluorescence ratio response to palmitate:BSA complex, relative to ADIFAB2 (ΔR/ΔRAD2)
# Assay type: binding
# Settings: fluorescence response (R-Ro) relative to ADIFAB2; palmitate
# Experimental: (§1) The intensity ratio (“R” value) for a given probe is determined. The ratio is calculated using the following formula: R=Fλ1/Fλ2 wherein, Fλ1, is the measured fluorescence intensities (intensity of sample with probe present minus intensity of sample without probe present) at wavelength 1 and Fλ2 is the measured fluorescence intensities (intensity of sample with probe present minus intensity of sample without probe present) at wavelength 2. Then, for a given probe, ΔR, the difference in R value between the measurement in the presence of the analyte and in the absence of the analyte, is calculated as follows: ΔR=R+analyte−R0 The ΔR value for a given probe is then compared to a reference probe, for example, ADIFAB or ADIFAB2, by ΔR/ΔRreference. This value is an indication of how dissimilar the new probe (derived by mutation of the template) is to the reference. By this method, probes with new and useful characteristics may be identified. Measurements of fluorescence intensities are obtained using standard techniques.
# (§2) Mutant probes were screened in 96-well plates by fluorescence response to five fatty acids: arachidonate, linolenate, linoleate, oleate, and palmitate. Each fatty acid was prepared as a complex with BSA by slow addition of 50 mM stocks of fatty acid sodium salts at pH 11 to 600 μM BSA in HEPES buffer. During the formation of complexes, 15 μL aliquots were periodically measured with the reference probe, ADIFAB2, to determine the ΔR value upon excitation at 375 nm and fluorescence emission at 550 and 457 nm using a Fluorolog-3 spectrofluorometer (Jobin Yvon) (Richieri et al, Molecular and Cellular Biochemistry (1999), 192:87-94 & Richieri et al, J. Biol. Chem. (1996), 271:31068-31074). Complexes were prepared such that the final ΔR was approximately 0.4 which correspond to [FFAu] ranging from 100 to 1000 nM depending on FFA type. These complexes buffer or clamp the FFAu levels at fixed values and therefore ensure the accurate comparison of different probes with the same FFAu concentrations. In contrast, addition of FFAu alone (i.e. uncomplexed FFA) introduces considerable uncertainty in comparing different probes because the FFAu level will be affected by binding to the dispensing device, the walls of the multi-well plates and to the probe itself. Thus, the terms “buffer” and “clamp” as used in this particular context herein are taken to mean the ability of a carrier macromolecule to complex with an unbound metabolite so that the unbound metabolite is presented accurately for measurement purposes and is prevented from non-specific binding such as binding to laboratory apparatus.
# (§3) Plates were prepared and read in two stages. First, complexes and fatty acid free BSA were diluted to 6 μM BSA in HEPES and added to the 96-well plate at 300 μL per well. A MultiProbe II HT (Perkin Elmer) (an automated liquid handling system) was used to facilitate plate preparation for high throughput screening, but any automated or manual pipetting system will suffice. The background fluorescence was then measured at the same wavelengths as used for ADIFAB2 using a Fluorolog-3 spectrofluorometer with an external Micromax 384 fluorescence plate reader (Jobin Yvon). In the second stage, 30 μL aliquots of the mutant probes were added to multiple wells of the plate, one for each fatty acid and one with fatty acid free BSA only, and the fluorescence intensity at each wavelength was again measured on the plate reader. After subtraction of the background fluorescence, the fluorescence ratio of each well was calculated.
# (§4) The fluorescence response was quantitatively compared to ADIFAB2 to search for changes in magnitude and fatty acid profile; for example the response to one fatty acid relative to another. For each probe the ratio differences (AR) between wells with each fatty acid compared to a corresponding well with fatty acid free BSA were recorded. […]
row,Molecule,ΔR/ΔRAD2 PA
1,B1,1.13
2,B2,0.4
3,B3,0.8
4,B4,0.9
5,B5,0.1
6,B6,0.2
7,B7,0.7
8,B8,0.4
9,B9,0.4
10,B10,0.5
11,B11,−0.04
12,B12,0.8
13,B13,−0.6
14,B14,0.8
15,B15,−0.6
16,B16,0.1
17,B17,0.5

# Test: Probe fluorescence ratio response to arachidonate:BSA complex, relative to ADIFAB2 (ΔR/ΔRAD2)
# Assay type: binding
# Settings: fluorescence response (R-Ro) relative to ADIFAB2; arachidonate
# Experimental: as §1, §2, §3, §4
row,Molecule,ΔR/ΔRAD2 AA
1,B1,1.21
2,B2,1.5
3,B3,0.9
4,B4,1.6
5,B5,0.9
6,B6,0.8
7,B7,1.0
8,B8,1.0
9,B9,1.3
10,B10,0.9
11,B11,0.38
12,B12,0.8
13,B13,−1.0
14,B14,0.7
15,B15,−1.3
16,B16,0.9
17,B17,0.9

# Test: Probe fluorescence ratio response to oleate:BSA complex, relative to ADIFAB2 (ΔR/ΔRAD2)
# Assay type: binding
# Settings: fluorescence response (R-Ro) relative to ADIFAB2; oleate
# Experimental: as §1, §2, §3, §4
row,Molecule,ΔR/ΔRAD2 OA
1,B1,0.73
2,B2,1.1
3,B3,0.7
4,B4,1.1
5,B5,0.3
6,B6,0.4
7,B7,0.7
8,B8,0.9
9,B9,0.7
10,B10,0.5
11,B11,−0.04
12,B12,0.5
13,B13,−1.4
14,B14,0.4
15,B15,−1.7
16,B16,0.3
17,B17,0.5

# Test: Probe fluorescence ratio response to linoleate:BSA complex, relative to ADIFAB2 (ΔR/ΔRAD2)
# Assay type: binding
# Settings: fluorescence response (R-Ro) relative to ADIFAB2; linoleate
# Experimental: as §1, §2, §3, §4
row,Molecule,ΔR/ΔRAD2 LA
1,B1,1.23
2,B2,1.2
3,B3,1.1
4,B4,2.0
5,B5,0.5
6,B6,0.8
7,B7,1.1
8,B8,0.8
9,B9,0.8
10,B10,0.9
11,B11,−0.04
12,B12,0.9
13,B13,−1.3
14,B14,0.9
15,B15,−1.5
16,B16,0.6
17,B17,0.8

# Test: Probe fluorescence ratio response to linolenate:BSA complex, relative to ADIFAB2 (ΔR/ΔRAD2)
# Assay type: binding
# Settings: fluorescence response (R-Ro) relative to ADIFAB2; linolenate
# Experimental: as §1, §2, §3, §4
row,Molecule,ΔR/ΔRAD2 LNA
1,B1,1.86
2,B2,0.7
3,B3,1.3
4,B4,2.0
5,B5,0.5
6,B6,0.8
7,B7,1.2
8,B8,0.7
9,B9,0.7
10,B10,1.0
11,B11,0.03
12,B12,1.0
13,B13,−1.1
14,B14,0.9
15,B15,−1.3
16,B16,0.5
17,B17,0.9
